Source: patent US5605671
pKd: −log10 of the molar value.

Assays:
[1] = biological target: Interleukin-8 receptor molecules on purified human neutrophils; experiment: saturation binding of radioligand to purified human neutrophils, analysis of binding curves
[2] = biological target: Interleukin-8 receptor molecules on purified human neutrophils; experiment: radioligand binding to purified human neutrophils, with and without 1000-fold molar excess of nonlabeled IL-8
[3] = biological target: Interleukin-8 receptor molecules on purified human neutrophils

pKd [1]: 9.08
estimated maximum binding sites per cell (binding sites per cell) [1]: 60000
specific binding as share of total binding [2]: > 90%
neutrophil chemotaxis in a Boyden chamber [3]: > 95%
Substance: I-125-labeled human recombinant interleukin-8 (ligand)
